The values that follow come from the DeepSol protein solubility set.

A short description of the data set: soluble on expression in E. coli; label from the status in PepcDB or PDB records.
“SNAMQKSVLEQLKQVTMVVADTGDFELIKKYKPVDATTNPSLILKAVKEQKYSNLVAETISKVKANNPDLNSDDLVKEIAIEILVSFGIKILDVIEGKVSSEVDARVSFNSATTIDYAKRIIARYESNGIPKDRVLIKIAATWEGIKAAKLLQKEGINCNLTLIFDKAQAKACAEAGVYLVSPFVGRITDWQMQQNNLKTFPAIADDDGVNSVKAIYKLYKSHGFKTIVMGASFRNVEQVIALAGCDALTISPVLLEELKNRDEHLEVKLTKNDDVVTQSPQISEADFRWLMNENAMATHKLAEGIRLFTKDTIELENIIKQNL”: the “soluble on expression in E. coli” value is reported as “soluble”.

“MGSDKIHHHHHHMSRPKVIVTIAPTGGMASKQQNPHLPTQPEEIASDVYDCYNAGASVVAVHARRPDDGATCDAAIYRDINTRIRAKCDIVINNSTGGGVHGEMIGQASNGYWEILWEERLKGMDAGAELCTLDATTIIATFGGKELLMHTSPERSKHLAVEMKKRGIKPEWEVFSPTHIVQDVAALTAAGFDEEPFFINLVLGVHRNFQNAMPYSPRVLQSMVDLLPKGSIFCVSGIGPAQLPSAMNSLLLGGHVRVGLEDNLYYSAGELATNVQLVERVVRLVREMGYEPATPREAREIMGLPRSSGPRPDFAMQ”: the “soluble on expression in E. coli” value is recorded as “not soluble”.

As to QILSIDPLDISQNLAAVNKSLSDALQHLAQSDTYLSAI, the “soluble on expression in E. coli” value was “soluble”.

For “STYPPTPPNVTRLSDESVMLRWMVPRNDGLPIVIFKVQYRMVGKRKNWQTTNDNIPYGKPKWNSELGKSFTASVTDLKPQHTYRFRILAVYSNNDNKESNTSAKFYLQPGAALDPMPVPELLEIEEYSETAVVLHWSLASDADEHLITGYYAYYRPSSSAGEYFKATIEGAHARSFKIAPLETATMYEFKLQSFSAASASEFSALKQGRTQRPK”, the “soluble on expression in E. coli” value is reported as “soluble”.

Consider “MGEAAKDQTEEVIQAWYLDNKEEDQKLPHHKDPKEFVSLDKLAELGVLCWRLDADNYETDEELKRIRESRGYSYMDLCEVCPEKLPNYEEKVKMFFEEHLHIDEEIRYCLAGSGYFDVRDLNDIWIRVWVKKGGLIVFPAGIYHRFTVDSDNYMKAMRLFVGGPVWTAYNRPHDHLPARKAYMKKFLKVIGDRNIDASA”, for which the “soluble on expression in E. coli” value was “soluble”.

In the case of “MGSDKIHHHHHHMKKVNYAAIDIGSNAVRLLIKCVNEENAPELMSKVQLIRIPLRLGEDAFTMGVISAEKEKKLIRLMKAYKQLMKIYDVVDYRACATSAMRDARNGKDIARQIARKTGIRVDIIDGQEEAHIVYDNHIEQLFASGQNYLYVDVGGGSTEINLISNGELKNSRSYNIGTVRMLSGMVKEEEKEALRTDLIGLAAEYAPTSIIGSGGNINKLFRLADKKDKKASLLPVESLREIYEALQALPAEQRIKQYKLKPDRADVIVPAAEIFLEVAMNVKATGIIVPTIGLSDGIIDSLYTQKMNTPVAPKVQ”, the “soluble on expression in E. coli” value was “not soluble”.

As to “MPILTIREVCNINHWGIGYYDVDDSGEIIVRPNPSQHNQTVSLQKLTEAVQQKHQARLPVLFCFPQILEHRLRDINRAFQTAREECGYKGGYCLVYPIKVNQHRRVIESLMSSGQPHGLEAGSKAELMAVLAHAGNRQTLIVCNGYKDREYIRFALMGEKLGHQVYLVIEKLSEIQMVLEEAEKLGIKPRLGVRARLASQGSGKWQSSGGEKSKFGLSASQVLQLVDILKQKNRLDCLQLLHFHLGSQLGNIRDVATGVHESARFYVELHKLGVNIRCFDVGGGLGVDYEGNRTQSDCSVNYSLNEYAATVVWGISQACLEHGLPHPTIITESGRGITAHHAVLVANVIGVERYKPRRLDAPSPEAPRVLHSMWETWTDISASREKRSLRSWIHEGQFDLADVHNQYNVGLLSLAQRAWAEQLYLNICHEVGELFNEKHRSHRTIIDELQERFADKLYVNFSLFQSLPDAWGIDQLFPVCPITGLNEPIARRAVLLDITCDSDGTIDHYIDGDGIAGTMPMPDYPEEEPPLLGFFMVGAYQEILGNMHNLFGDTATADVVVGEDGQFTVIDYDEGNTVADMLEYVYQDPKELMKRYREQIEHSDLPASQAMSFLKELEAGLNGYTYLEDE”, the “soluble on expression in E. coli” value is reported as “not soluble”.

As to “MTYEAGCGLIKALEDPDNRVRQRAVKTLGKRGNPDVLEDLMEALKDSRQPVQEAASEALRKIIAASDSVPVLVKALDATDRNVRKAAIEALWKAGTPEAIPPLLRELDDADWYLRSRAADALADIASPEAALGLIKVMDIHDSPVKKIIVNALGKIGTVEAVEGLVKALEDLEHHHHHH”, the “soluble on expression in E. coli” value is given as “not soluble”.

Consider “MRIRIAHSPDSDDAFMFYPLVKGLIDTEGLEIEHVLADIETLNREALKGTYEVSAISFHAYPYVADKYAVLPSGGSIGEGYGPIVVAREELGTLKGKKIAVPGELTTAFLTLKLYEPDFEHVVIPFDRIIQAVLEGKVDAGLVIHEGQLSYKDYGLKKIVDLGEWWKEKYGLPLPLGCNVVRKDLGREVVKKIERLMRESVEYALKERKRALEYAINYARDLSEDLERTQKFVSMYVNERTVDYGEDGREAVRLLLRLGKERGIIKAEIPEKIFSDELF”, for which the “soluble on expression in E. coli” value was “soluble”.

With “MYLIEPIRNGKRITDGAVALAMQVYVQENLFLDDDILFPYYCDPKVEIGKFQNAVVETNQEYLKEHHIPVVRRDTGGGAVYVDSGAVNICYLINDNGIFGDFKRTYQPAIEALHHLGATEVEMSGRNDLVIDGKKVSGAAMTIANGRVYGGYSLLLDVDFEAMEKALKPNRKKIESKGIRSVRSRVGNIREHLAPQYQGITIEEFKDLMVCQLLQIETISQAKRYDLTEKDWQQIDALTERKYHNWEWNYGNAPQYRYHRDGRFTGGTVDIHLDIKKGYIAACRIYGDFFGKADIAELEGHLIGTRMEKEDVLATLNAIDLAPYLGAITAEELGDLIFS”, the “soluble on expression in E. coli” value was “soluble”.

On to “MLFYLISAIIFTTVAFAAPTPAPTLTVAEEMEAIFQNLTEEAQNDYFQILFDHTLTLAELDQKWDEWAEKHGIADKWAVYTSKWQARKEKFNETTVSVIERLPSTYKMLSEITANRNQTLSQVETALEELKEKFNLEVQLILILSKTLILNEEIVLGGGPIEVGNEVTGNSFRRMRDFKNKNRDVKSLLIPGPL”, for which the “soluble on expression in E. coli” value is recorded as “not soluble”.

On to “MKLKSLDFPTGYFYFDNAAINSDKVEVIAVGYRNTDKTIKIFIEDVIHFRVVDESYFIDTFMDLISEDADRALLHENGGQSFFELLDECYAEWILKESYFPLNREFFKYYIFMFEQTFIEIIGSSATYSIIEG”, for which the “soluble on expression in E. coli” value is “not soluble”.

For the sequence “YEQKIRLENRSVAGKWALSQKGFDGKKLMRAYDSPEAAAAALKMQKLTEQYRIDSTPTVIVGGKYRVIFNNGFDGGVHTIKELVAKVREERKRQTPAVQK”, the “soluble on expression in E. coli” value is on record as “not soluble”.

As for “SGLVPGRHMMITMDDIIREGNPTLREVAKEVSLPLSEEDISLGKEMLEFLKNSQDPIKAEELHLRGGVGLAAPQLDISKRIIAVHVPSPDPEADGPSLSTVMYNPKILSHSVQDACLGEGEGCLSVDREVPGYVVRHAKITVSYYDMNGEKHKIRLKNYESIVVQHEIDHINGVMFYDHINDQNPFALKEGVLVIE”, the “soluble on expression in E. coli” value was “soluble”.

In the case of “MGSDKIHHHHHHMASLSELAVFIAVAEQGSFVGAGRVLGVSASAVGKRISRLEVDLGVRLLQRNTRSLALTAEGETVLSRGRSLLDEAESLRVVLERSSRQPGGVLRLSLPPIGGVLMAELAAFRQRYPEVALELDYSERNVDIIEEGFDAAIRVGAGDDGKLRSLALPGFRRLIVAAPDYLVRHGQPRSAAQLAEHQLIHYRSPNSGKLEAWPLVNAELPRALVCNSVHARLDFALQGQGIACLPDISIRRELEDGSLRPLLGSENGEKVVLRLLWPSSRGLSARMEAFLGFMRERSGAAPCENFKVRA”, the “soluble on expression in E. coli” value is listed as “not soluble”.

Consider “MGSDKIHHHHHHEDPRGKLTPENFFSTQDELNMSIYALYQKVNLSQVYTNMQLPQWQGDDITTNPGSNKQPAAEMDKFAAANNNKGVKDAWNMHYAIVKAANLIIQGASKTPTTQDEINIALGQAKFWRAYAYFTLVRLWGPLPMNLDNVNDDYTKPLSPVEEVYGHIVQDLTEAEAVLPTGYSGSPRFLNGVNVYVTRQAAKSTLAAVYMAMAGWPMNKTEYYAKAAEKAKEVIEGVNRGEYEYKLDKDYKDVYAMSNNYNNETVLGINYSPFVDWAQDSELTSCNQFESLGGWGDAWGEIRFWKEFPDGPRKDATYDPKIRLKDGTLVDWWELKEDGTPVVPEHHPMFSIFSVNWDPASKVNTSAPYDYTKPASQNMCNDHRHRIIRYSEVLLWYAEAKARTGQTDELAFKCLNDVRERAGLEPLTGLSADDLAEAAYKEHGWEVAGYWVALVTRRADQFRMNRLKDTFKERAENTAVEVADGILVKESVEYTNRTWSDNLMYLPYPDMDSQKNPNLVR”, for which the “soluble on expression in E. coli” value is “not soluble”.

Turning to “MKLINTTWTHQELVNNQLDNTDAFLVETYSAGNTDVVFTQAPKHYELLISNKHRAVKDNELEVIREFFLKRKIDKDIVLMDKLRTVHTDKLIEISFPTTV”, the “soluble on expression in E. coli” value is recorded as “soluble”.

Take “MGSDKIHHHHHHMANLTFYPIGTAGEKWGETEKAAWLASTQIKRSYQDDVVTPLKAMEAKLSALGLGIVQYGALSINAERYPLFAVKSQQFDPQKPTVLVTGGVHGYETSGVHGALAFLTNEAANYVQQVNLVVAVCVSPWGYETINRWNPKAIDPNRSFYANSPAEESAALMALVASVTSVEQGFDVHVDLHETTDSDELEFRPALCARDGIEYDKGTIPDGFYAVGDTEHSMDAFQKAIIDGVSKVTHIAPADEKGEIIGSTVVQHGVINYPLKSLGLCSSVTGCIYNTTTEVYPDSPTATPAECNLAQVAAITSAIDYVLAQR”: the “soluble on expression in E. coli” value was “not soluble”.

Consider “MGSDKIHHHHHHGIDNGTPKSKNEIGVNTIVKKSSRAAVTSNSSFTSFKLHAYIVKSNDIATSGWGNAYMDGIEYKGGQGSWATTSGTFYWPITEMQFFGYTNDVTYTAPASSNAYPTISYTLPDTPADQKDIIVAYSKDVTKPSDNTLNLTFQHILTRINFAVKLVDSSYTYTVESITITGAKGGTATYTFGGTEGKGGNWNITGSAPASGYSYTFDNTVTAKDGIYDYTQNDNSLMLYPQSLTDAKIIVKYKTEKDNATFFNDSKEVSLTGEWTNGQSIRYILTLPVGAEEMSVNTTYDENWDATDNEQTPKNPAS”, for which the “soluble on expression in E. coli” value is recorded as “not soluble”.

Turning to “MAHHHHHHMSAEQQRLKKMHCEAVTLAEMKQWLGLPLTTAASSSSAAPAAAAVAAAPKSPVEEAVGRDVYDMYGLSMTAVDAYLLRYLRSKNLVIEDAVAKLRRRRAFERTLPMISVTTTTVAALRSGAFHLLDHDLEGRPVLYINVATFTLPTLELDEAQRLLIILLEFMQARCLLKNNEKVAAMQRRRRQHVDATAAASSFANGGRENNGGAAAPAHGAQDVDKETVSDLQEFALLVNEERVPWMMHASFLKNYSTLLSILPKYYPLLLGSVLVLGASLEIRTAIKACVGSSSEDVRNSVQMIEKADLPRYMDASTIPVELGGHKQIVGSAMNFSETVLRHWFTLTSQIEDECVGSDGGIADSKVPTTISAAGAANGHREDGGGAETSHSPPRPLYVPPPPLGMTQRHISRQRHAVELQHLSSSVVGTITGPGSPGPMRPCKYGGSSARNGKHSLMSSAAAANRSTAVTTPHGTPTSQKDQAAATVTLGAGRAEDVTDDGVCSALSGADERDDYAENEGGGAGMHTRTNSGVPTYQLYTAASSLAGSLAVEGEMHLSGLGASHNRHHQGASLYSVASATISREEAAHFADHPDDAVVALRQERRRRQRAEQALYFRDLGVTLDMRNASIIEKELAAIHQDLNVLVAEILVKAEAARKRQKAPPTLKQLLDLTLTAFESVTCTPSSVPAMALAEPAQREAASSSCCSFM”, the “soluble on expression in E. coli” value is given as “not soluble”.

In the case of “MSQPIYKRILLKLSGEALQGEDGLGIDPAILDRMAVEIKELVEMGVEVSVVLGGGNLFRGAKLAKAGMNRVVGDHMGMLATVMNGLAMRDSLFRADVNAKLMSAFQLNGICDTYNWSEAIKMLREKRVVIFSAGTGNPFFTTDSTACLRGIEIEADVVLKATKVDGVYDCDPAKNPDAKLYKNLSYAEVIDKELKVMDLSAFTLARDHGMPIRVFNMGKPGALRQVVTGTEEGTTICLEHHHHHH”, the “soluble on expression in E. coli” value is “not soluble”.
